The target in the assay is T1, His-tagged Rad51 (mouse, UniProt Q08297 1-339).
T1 construct: Rad51, mouse; The bacterial expression construct is not described; source: bacterially expressed, purified (Ni superflow beads)
T1 sequence (looked up): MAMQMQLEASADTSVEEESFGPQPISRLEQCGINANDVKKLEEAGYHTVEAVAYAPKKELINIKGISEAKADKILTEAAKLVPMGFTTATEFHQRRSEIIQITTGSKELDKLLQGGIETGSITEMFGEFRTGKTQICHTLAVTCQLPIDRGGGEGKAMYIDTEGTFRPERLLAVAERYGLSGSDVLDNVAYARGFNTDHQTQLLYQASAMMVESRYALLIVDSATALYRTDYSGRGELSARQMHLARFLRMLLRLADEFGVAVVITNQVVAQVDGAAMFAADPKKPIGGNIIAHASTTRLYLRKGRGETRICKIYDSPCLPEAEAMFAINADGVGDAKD
Kind of assay: pull-down; purified GST-tagged Nanog or fragments on glutathione-sepharose beads, incubated with purified His-tagged Rad51 at 4 °C overnight; washed 4 times with lysis buffer; western blot with anti-Rad51. The note with it: both partners purified.

B1: GST-tagged Nanog (natural protein, mouse, UniProt Q80Z64 1-305, looked up)
chain: MSVGLPGPHSLPSSEEASNSGNASSMPAVFHPENYSCLQGSATEMLCTEAASPRPSSEDLPLQGSPDSSTSPKQKLSSPEADKGPEEEENKVLARKQKMRTVFSQAQLCALKDRFQKQKYLSLQQMQELSSILNLSYKQVKTWFQNQRMKCKRWQKNQWLKTSNGLIQKGSAPVEYPSIHCSYPQGYLVNASGSLSMWGSQTWTNPTWSSQTWTNPTWNNQTWTNPTWSSQAWTAQSWNGQPWNAAPLHNFGEDFLQPYVQLQQNFSASDLEVNLEATRESHAHFSTPQALELFLNYSVTPPGEI
notes: Nanog, mouse; The bacterial expression construct is not described; also called full-length Nanog; FL; source: E. coli BL21, purified (Glutathione-Sepharose)
Turning to B1, the binding result is listed as “binds”.
